The source of these data is patent US20240181006A1, “POLYPEPTIDES BINDING ADAMTS5, MMP13 AND AGGRECAN” (Merck Patent GmbH, priority 2017, published 2024).

Holding throughout (experiment): cell-based or functional assay
Assay [1] has as its target bovine MMP13 (activated) (bovine) (UniProt O77656).
Assay [2] deals with human MMP13 (activated) (human) (UniProt P45452).
Assay [3] concerns the target dog MMP13 (activated) (dog).
The target of assay [4] is rat MMP13 (activated) (rat) (UniProt P23097).
For assay [5], the target named is cynomolgus MMP13 (activated) (cynomolgus).

Turning to TIMP-2 (from UniProt P16035 27-220), in assay [1], the IC50, bovine fluorogenic peptide assay was 1.1 nM. In assay [2], the IC50, human collagenolytic assay was 0.4 nM; the IC50, human fluorogenic collagen assay stood at 2.4 nM; the IC50, human fluorogenic peptide assay was 0.5 nM. For the same substance, in assay [3], the IC50, dog fluorogenic peptide assay is 0.9 nM. Also, in assay [4], the IC50, rat fluorogenic peptide assay worked out at 0.4 nM. This substance had an IC50, cyno fluorogenic peptide assay in assay [5] of 0.4 nM.
